Data as given in the supplement of paper PMC10724198.
± gives the standard deviation of the averaged measurements.

What was measured:
Saccharomyces cerevisiae [1] = assay: protein stability index of tFT-peptide fusion (C-terminal peptide) (PSI (0-1 scale)); higher = more stable (slower turnover); details: genetic background: wild type; temperature: 30 C
Saccharomyces cerevisiae [2] = assay: as above
Experimental: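 MPS profiling in S. cerevisiae of the tFT-X12 degron library: putative degron peptides plus stable controls, 12 aa, fused to the C-terminus of a sfGFP-mCherry timer. Cells are FACS-sorted into 8 mCherry/sfGFP bins and deep-sequenced. PSI runs from 0 (unstable) to 1 (stable). Backgrounds are wild type, das1Δ and doa10Δ at 30 °C, and wild type, das1Δ, cdc34-1 and cdc53-1 at 37 °C; 2-3 technical replicates each.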

[3] = genetic background: cdc34-1, temperature: 37 C
[4] = genetic background: cdc53-1, temperature: 37 C
[5] = genetic background: das1 deletion, temperature: 30 C
[6] = genetic background: das1 deletion, temperature: 37 C
[7] = genetic background: doa10 deletion, temperature: 30 C
[8] = genetic background: wild type, temperature: 30 C
[9] = genetic background: wild type, temperature: 37 C
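Further: PSI is a weighted mean of sequencing reads over stability bins, variants kept only with over 10 reads, mCherry proximal and sfGFP distal, peptide attached via GGGS linker.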

Row | Sequence | protein stability index (Saccharomyces cerevisiae [1]) | protein stability index (Saccharomyces cerevisiae [2]; [3]) | protein stability index (Saccharomyces cerevisiae [2]; [4]) | protein stability index (Saccharomyces cerevisiae [2]; [5]) | protein stability index (Saccharomyces cerevisiae [2]; [6]) | protein stability index (Saccharomyces cerevisiae [2]; [7]) | protein stability index (Saccharomyces cerevisiae [2]; [8]) | protein stability index (Saccharomyces cerevisiae [2]; [9])
1 | FLVLFYCTFWVR | 0.329 ± 0.089 | 0.162 ± 0.0078 | 0.242 ± 0.032 | 0.222 ± 0.019 | 0.3245 ± 0.0025 | 0.197 ± 0.006 | 0.211 ± 0.042 | 0.349 ± 0.071
2 | VFLVFSVWVVYR | 0.318 ± 0.027 | 0.2 ± 0.0081 | 0.304 ± 0.00039 | 0.233 ± 0.024 | 0.357 ± 0.018 | 0.2068 ± 0.00094 | 0.218 ± 0.026 | 0.343 ± 0.053
3 | FVFFRFSLLFFF | 0.337 ± 0.049 | 0.332 ± 0.022 | 0.344 ± 0.04 | 0.331 ± 0.029 | 0.449 ± 0.0046 | 0.269 ± 0.0034 | 0.225 ± 0.027 | 0.356 ± 0.014
4 | VFRLLALLWRFF | 0.325 ± 0.056 | 0.606 ± 0.01 | 0.695 ± 0.018 | 0.62 ± 0.031 | 0.767 ± 0.029 | 0.323 ± 0.037 | 0.31 ± 0.022 | 0.42 ± 0.012
5 | FLMCVFFLCFSN | 0.34 ± 0.028 | 0.304 ± 0.031 | 0.41 ± 0.051 | 0.308 ± 0.024 | 0.472 ± 0.015 | 0.208 ± 0.0021 | 0.22 ± 0.019 | 0.325 ± 0.029
6 | CLASCRHRTYLC | 0.483 ± 0.12 | 0.652 ± 0.026 | 0.7142 ± 0.0013 | 0.641 ± 0.023 | 0.7223 ± 0.0018 | 0.338 ± 0.015 | 0.364 ± 0.025 | 0.58 ± 0.016
7 | LLVSVVFVSRFF | 0.387 ± 0.053 | 0.378 ± 0.024 | 0.465 ± 0.075 | 0.272 ± 0.038 | 0.514 ± 0.0092 | 0.213 ± 0.0049 | 0.251 ± 0.035 | 0.444 ± 0.006
8 | FTRWLVYCTPLC | 0.516 ± 0.024 | 0.554 ± 0.033 | 0.569 ± 0.0098 | 0.46 ± 0.011 | 0.586 ± 0.0022 | 0.437 ± 0.029 | 0.441 ± 0.012 | 0.567 ± 0.013
9 | LPTGLKTFLIAF | 0.461 ± 0.02 | 0.481 ± 0.0085 | 0.485 ± 0.031 | 0.414 ± 0.025 | 0.541 ± 0.026 | 0.374 ± 0.0094 | 0.405 ± 0.027 | 0.519 ± 0.0071
10 | ASFVCWSVCALG | 0.413 ± 0.025 | 0.508 ± 0.026 | 0.545 ± 0.006 | 0.4 ± 0.022 | 0.525 ± 0.015 | 0.384 ± 0.029 | 0.398 ± 0.019 | 0.5104 ± 0.0049
11 | VFLFSLCIRLSR | 0.204 ± 0.008 | 0.122 ± 0.065 | 0.214 ± 0.0052 | 0.141 ± 0.031 | 0.289 ± 0.013 | 0.133 ± 0.013 | 0.147 ± 0.018 | 0.248 ± 0.011
12 | QIDYSVYIFALG | 0.371 ± 0.026 | 0.4309 ± 0.00032 | 0.493 ± 0.036 | 0.279 ± 0.03 | 0.4672 ± 0.0007 | 0.261 ± 0.0014 | 0.302 ± 0.023 | 0.454 ± 0.0065
13 | MFTIYISFVFAF | 0.269 ± 0.039 | 0.197 ± 0.0067 | 0.277 ± 0.0087 | 0.195 ± 0.029 | 0.3305 ± 0.00089 | 0.179 ± 0.017 | 0.214 ± 0.0098 | 0.2844 ± 0.0023
14 | GTRAGNPDRQRS | 0.706 ± 0.013 | 0.678 ± 0.052 | 0.759 ± 0.011 | 0.638 ± 0.034 | 0.714 ± 0.025 | 0.656 ± 0.021 | 0.632 ± 0.022 | 0.706 ± 0.016
15 | VIYNSALLLVRL | 0.391 ± 0.041 | 0.273 ± 0.031 | 0.225 ± 0.01 | 0.249 ± 0.031 | 0.407 ± 0.037 | 0.325 ± 0.014 | 0.25 ± 0.023 | 0.386 ± 0.01
16 | FFACSLLFVLVF | 0.228 ± 0.0075 | 0.0985 ± 0.0033 | 0.175 ± 0.022 | 0.177 ± 0.022 | 0.27 ± 0.0076 | 0.1392 ± 0.0012 | 0.17 ± 0.027 | 0.226 ± 0.014
17 | DVHPLFYCIPVY | 0.13922 ± 3.4e-05 | 0.0345 ± 0.018 | 0.0286 ± 0.016 | 0.101 ± 0.037 | 0.0568 ± 0.014 | 0.0881 ± 0.0095 | 0.101 ± 0.02 | 0.0474 ± 0.03
18 | PRFLRWLFSLLI | 0.515 ± 0.032 | 0.739 ± 0.039 | 0.704 ± 0.012 | 0.705 ± 0.015 | 0.769 ± 0.044 | 0.597 ± 0.0095 | 0.592 ± 0.014 | 0.739 ± 0.041
19 | RKFRAWIRITRT | 0.377 ± 0.013 | 0.627 ± 0.042 | 0.725 ± 0.031 | 0.635 ± 0.022 | 0.71526 ± 0.00022 | 0.219 ± 0.01 | 0.247 ± 0.048 | 0.471 ± 0.025
20 | GIPVRRLLFLVA | 0.292 ± 0.051 | 0.419 ± 0.0098 | 0.478 ± 0.013 | 0.335 ± 0.033 | 0.5019 ± 0.0023 | 0.145 ± 0.0062 | 0.17 ± 0.024 | 0.311 ± 0.021

Row | Sequence | protein stability index (Saccharomyces cerevisiae [1]) | protein stability index (Saccharomyces cerevisiae [2]; [3]) | protein stability index (Saccharomyces cerevisiae [2]; [4]) | protein stability index (Saccharomyces cerevisiae [2]; [5]) | protein stability index (Saccharomyces cerevisiae [2]; [6]) | protein stability index (Saccharomyces cerevisiae [2]; [7]) | protein stability index (Saccharomyces cerevisiae [2]; [8]) | protein stability index (Saccharomyces cerevisiae [2]; [9])
21 | SCIFVSSYFFVF | 0.251 ± 0.02 | 0.417 ± 0.0029 | 0.465 ± 0.057 | 0.364 ± 0.025 | 0.506 ± 0.012 | 0.179 ± 0.0043 | 0.18 ± 0.02 | 0.307 ± 0.00077
22 | VAIMSIWLVYML | 0.454 ± 0.0058 | 0.349 ± 0.0086 | 0.465 ± 0.0057 | 0.341 ± 0.031 | 0.497 ± 0.016 | 0.331 ± 0.0076 | 0.333 ± 0.0079 | 0.4919 ± 0.0028
23 | WLVVGGVVLLVV | 0.252 ± 0.0089 | 0.246 ± 0.029 | 0.28548 ± 0.00015 | 0.213 ± 0.033 | 0.395 ± 0.009 | 0.175 ± 0.0046 | 0.197 ± 0.026 | 0.37 ± 0.0047
24 | VVVCSLVPLFVL | 0.34 ± 0.018 | 0.3086 ± 0.0026 | 0.32 ± 0.035 | 0.272 ± 0.03 | 0.41 ± 0.017 | 0.205 ± 0.012 | 0.235 ± 0.029 | 0.318 ± 0.0076
25 | VQFISLVCLFRF | 0.414 ± 0.013 | 0.339 ± 0.048 | 0.361 ± 0.0089 | 0.341 ± 0.045 | 0.475 ± 0.036 | 0.346 ± 0.033 | 0.303 ± 0.018 | 0.448 ± 0.039
26 | VCLFWLFLWRIL | 0.266 ± 0.0063 | 0.208 ± 0.018 | 0.167 ± 0.027 | 0.3 ± 0.027 | 0.374 ± 0.013 | 0.217 ± 0.014 | 0.182 ± 0.0051 | 0.241 ± 0.016
27 | CRCLFVVKNWLS | 0.262 ± 0.017 | 0.62 ± 0.039 | 0.706 ± 0.012 | 0.623 ± 0.015 | 0.688 ± 0.04 | 0.147 ± 0.029 | 0.167 ± 0.013 | 0.293 ± 0.06
28 | FMCCFWFFWLGF | 0.459 ± 0.031 | 0.522 ± 0.041 | 0.518 ± 0.0095 | 0.421 ± 0.024 | 0.53 ± 0.0084 | 0.451 ± 0.006 | 0.438 ± 0.0098 | 0.501 ± 0.0061
29 | FGVLLLFLFFLP | 0.413 ± 0.041 | 0.347 ± 0.0038 | 0.444 ± 0.02 | 0.337 ± 0.022 | 0.4673 ± 0.0036 | 0.322 ± 0.0086 | 0.323 ± 0.0085 | 0.427 ± 0.0068
30 | PPPPPLAIPHPT | 0.7255 ± 0.0042 | 0.655 ± 0.037 | 0.709 ± 0.013 | 0.661 ± 0.04 | 0.684 ± 0.024 | 0.639 ± 0.011 | 0.674 ± 0.031 | 0.7141 ± 0.0041
31 | GRRPVVDFLPCL | 0.736 ± 0.0074 | 0.692 ± 0.045 | 0.7222 ± 0.004 | 0.697 ± 0.029 | 0.745 ± 0.009 | 0.7146 ± 0.0027 | 0.719 ± 0.037 | 0.742 ± 0.023
32 | VVGRWGFVVECW | 0.3595 ± 0.00014 | 0.268 ± 0.014 | 0.301 ± 0.024 | 0.254 ± 0.037 | 0.394 ± 0.0095 | 0.227 ± 0.011 | 0.249 ± 0.025 | 0.366 ± 0.0046
33 | FNMLFVVRLLYM | 0.365 ± 0.0057 | 0.37 ± 0.033 | 0.418 ± 0.0046 | 0.334 ± 0.053 | 0.473 ± 0.026 | 0.259 ± 0.027 | 0.257 ± 0.045 | 0.396 ± 0.0043
34 | PLRLRCASLFAN | 0.498 ± 0.086 | 0.62 ± 0.021 | 0.692 ± 0.0095 | 0.618 ± 0.034 | 0.737 ± 0.04 | 0.304 ± 0.018 | 0.362 ± 0.019 | 0.5647 ± 0.002
35 | PPPPPPLPSPSS | 0.35 ± 0.0078 | 0.664 ± 0.038 | 0.742 ± 0.024 | 0.64 ± 0.021 | 0.754 ± 0.012 | 0.659 ± 0.015 | 0.68 ± 0.023 | 0.699 ± 0.019
36 | SSMSAVFRLQVC | 0.276 ± 0.017 | 0.567 ± 0.0096 | 0.657 ± 0.0093 | 0.613 ± 0.017 | 0.662 ± 0.0092 | 0.228 ± 0.001 | 0.232 ± 0.015 | 0.299 ± 0.049
37 | VMRMVWVLGVMC | 0.299 ± 0.011 | 0.281 ± 0.02 | 0.325 ± 0.047 | 0.251 ± 0.037 | 0.405 ± 0.0087 | 0.178 ± 0.0075 | 0.203 ± 0.028 | 0.35 ± 0.0091
38 | CVLGWCSLIAWC | 0.284 ± 0.018 | 0.201 ± 0.044 | 0.238 ± 0.032 | 0.234 ± 0.015 | 0.231 ± 0.011 | 0.245 ± 0.025 | 0.242 ± 0.0093 | 0.1967 ± 0.0017
39 | VVGLVSIVQVIM | 0.397 ± 0.041 | 0.43875 ± 0.0003 | 0.488 ± 0.024 | 0.308 ± 0.023 | 0.51 ± 0.027 | 0.279 ± 0.011 | 0.31 ± 0.024 | 0.493 ± 0.014
